For test [1], the target named is T1, human FGFR1c on cells (human, UniProt P11362 22-822).
T1 construct: HEK293 cells expressing FGFR1c without KLB; also called hFGFR1c
Nature of the test: radiolabel ligand assay on cells expressing only FGFR1c; could not be determined reliably.

In test [2] the target is T1, human FGFR1c on cells. Nature of the test: radiolabeled ligand cell binding assay on stable HEK293 cells, iodinated against unlabeled protein.
In test [3] the target is T2, human KLB/human FGFR1c complex on HEK293 cells (human, UniProt Q86Z14 53-1044; P11362 22-822).
T2 construct: both receptors coexpressed on the same cells; Also used for L6 and COS7 cells transfected with both receptors (COS7: SNAP-tagged FGFR1c); also called FGFR1c/KLB complex
The test is described as above.

The target in another test is T3, mouse KLB (mouse, UniProt Q99N32 53-990).
T3 construct: KLB cDNA in pRK vector, transiently expressed on HEK293T cells for FACS
T3 sequence: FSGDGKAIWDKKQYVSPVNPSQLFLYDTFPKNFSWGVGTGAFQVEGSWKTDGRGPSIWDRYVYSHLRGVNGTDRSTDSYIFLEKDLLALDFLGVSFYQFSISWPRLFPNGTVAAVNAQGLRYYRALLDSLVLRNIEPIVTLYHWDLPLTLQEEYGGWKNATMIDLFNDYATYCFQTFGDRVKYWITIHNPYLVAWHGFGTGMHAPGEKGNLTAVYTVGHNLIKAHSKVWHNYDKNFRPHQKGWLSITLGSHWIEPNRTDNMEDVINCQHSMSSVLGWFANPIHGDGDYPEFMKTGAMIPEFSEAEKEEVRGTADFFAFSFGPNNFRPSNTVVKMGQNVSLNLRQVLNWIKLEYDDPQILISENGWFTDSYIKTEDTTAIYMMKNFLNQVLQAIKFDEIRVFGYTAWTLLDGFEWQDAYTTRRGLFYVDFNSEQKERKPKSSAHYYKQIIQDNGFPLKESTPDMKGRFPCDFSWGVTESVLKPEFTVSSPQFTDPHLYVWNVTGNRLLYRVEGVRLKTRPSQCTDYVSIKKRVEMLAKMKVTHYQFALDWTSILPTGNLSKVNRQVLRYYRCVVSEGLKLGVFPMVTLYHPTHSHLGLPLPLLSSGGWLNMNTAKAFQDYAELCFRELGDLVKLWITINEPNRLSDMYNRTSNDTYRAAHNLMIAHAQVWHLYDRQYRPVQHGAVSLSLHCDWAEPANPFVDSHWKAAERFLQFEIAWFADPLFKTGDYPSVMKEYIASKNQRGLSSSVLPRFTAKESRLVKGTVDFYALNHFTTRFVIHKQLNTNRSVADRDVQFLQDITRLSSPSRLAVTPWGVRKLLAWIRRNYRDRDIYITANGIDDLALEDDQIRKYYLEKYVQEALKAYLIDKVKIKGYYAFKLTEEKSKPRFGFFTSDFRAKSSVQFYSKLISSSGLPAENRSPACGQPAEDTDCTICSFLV
The test is described as above.

The next test addresses T4, human KLB on cells (human, UniProt Q86Z14 53-1044).
T4 construct: also called hKLB; beta-Klotho
The test is described as above.

Test [4] deals with T2, human KLB/human FGFR1c complex on …. Nature of the test: cell-based or functional assay.

T1 sequence (P11362 other isoform, or with tags, fused parts or gaps limits assumed): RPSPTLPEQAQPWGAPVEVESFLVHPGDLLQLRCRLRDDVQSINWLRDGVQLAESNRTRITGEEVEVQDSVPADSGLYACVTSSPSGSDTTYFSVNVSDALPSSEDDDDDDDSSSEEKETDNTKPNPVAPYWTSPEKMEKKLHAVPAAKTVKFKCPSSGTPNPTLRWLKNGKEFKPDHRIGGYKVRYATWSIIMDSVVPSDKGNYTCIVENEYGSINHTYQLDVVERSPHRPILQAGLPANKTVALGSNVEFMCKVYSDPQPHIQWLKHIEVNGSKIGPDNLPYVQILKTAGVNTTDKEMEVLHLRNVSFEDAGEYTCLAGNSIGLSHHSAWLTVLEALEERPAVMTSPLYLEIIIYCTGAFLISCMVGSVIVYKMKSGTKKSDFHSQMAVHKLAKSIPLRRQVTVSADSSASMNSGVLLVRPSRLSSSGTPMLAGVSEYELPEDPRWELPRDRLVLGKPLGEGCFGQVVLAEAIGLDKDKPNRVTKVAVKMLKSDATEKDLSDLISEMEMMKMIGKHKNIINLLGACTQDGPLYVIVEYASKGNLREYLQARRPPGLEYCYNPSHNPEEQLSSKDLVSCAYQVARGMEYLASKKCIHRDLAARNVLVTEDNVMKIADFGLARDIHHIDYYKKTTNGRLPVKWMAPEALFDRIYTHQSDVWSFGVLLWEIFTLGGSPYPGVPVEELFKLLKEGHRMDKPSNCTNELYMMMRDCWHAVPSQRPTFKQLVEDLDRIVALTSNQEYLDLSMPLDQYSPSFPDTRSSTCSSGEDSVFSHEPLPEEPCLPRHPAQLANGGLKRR

B1: BsAb10 (bispecific antibody)
chain 1: EVQLVESGGGLVQPGGSLRLSCAASGFTFTSNWISWVRQAPGKGLEWVAEIDPYDGATDYADSVKGRFTISADTSKNTAYLQMNSLRAEDTAVYYCATGTDVMDYWGQGTLVTVSS
chain 2: DIQMTQSPSSLSASVGDRVTITCRASQDVSTAVAWYQQKPGKAPKLLIYSASFLYSGVPSRFSGSGSGTDFTLTISSLQPEDFATYYCQQSYTTPPTFGQGTKVEIK
chain 3: QVQLKQSGPGLVQPSQSLSVACTVSDFSLTTYGVHWVRQSPGKGLEWLGVIWSGGSTDYNAAFISRLTISKDNSKSQVFFKMNSLQTTDTAIYYCARDYGSTYVDAIDYWGQGTSVTVSS
chain 4: DIVLTQSPTSLAVSLGQRATISCRASESVESYGNRYMTWYQQKPGQPPKLLIYRAANLQSGIPARFSGSGSRTDFTLTIDPVEADDVATYYCQQSNEDPWTFGGGTKVEIK
On to B1, for which the Kd with human FGFR1c on cells [1] is greater than 300 nM; in the test with human FGFR1c on cells [2], 300 nM; in test [3], 2.3 nM; with mouse KLB, 15.5 nM; in the test with human KLB on cells, 6.6 nM. In test [4], the “EC50 in GAL-ELK1 assay in HEK293 cells” value was 3.2 nM.

B2: BsAb9 (bispecific antibody)
chain 1: B1 chain 1
chain 2: B1 chain 2
chain 3: EVKFLESGGGLVQPGGSLRLSCAVSGIDFSRYWMSWVRQAPGKGLEWIGEISPDSSTINYTPSLKDKFVISRDNAKNTLYLQMSKVRSADTALYYCARPSPALDYWGQGTLVTVSA
chain 4: DIVMTQSPATLSVTPGDRVSLSCRASQSISDYVYWYQQKSHESPRLLIIYASQSISGIPSRFSGSGSGSDFTLSINSVEPEDVGVYYCQNGHNFPYTFGGGTKLEIK
Take B2: the Kd was found to be 300 nM with human FGFR1c on cells [2], 2.2 nM in test [3] and 9.8 nM with human KLB on cells.

Usually Kd stands for the concentration at which binding is half-saturated. The low end stands for tighter binding, the high end for weaker binding.
